Test results taken from paper PMC5798830, “Hexons from adenovirus serotypes 5 and 48 differentially protect adenovirus vectors from neutralization by mouse and human serum” (PLoS ONE, 2018).

Experiments:
[1] = target: T1, human coagulation factor X (human); assay: SPR; Biacore T200; about 1,200 reference units of Ad5.0, Ad5:H48 or Ad48 particles immobilised on a CM5 chip; FX as analyte at four concentrations (max 42 nM for Ad5.0 and Ad5:H48, 212 nM for Ad48); 10 mM HEPES, 150 mM NaCl, 1 mM CaCl2, 0.5 mM MgCl2, 0.1% BSA, 0.05% polysorbate 20, pH 7.4; 50 uL/min; global fit to a 1:1 kinetic model; conditions: both partners purified
T1 construct: Probably plasma zymogen with Gla residues in the light chain (surmised); also called human FX; FX; source: bought: Haematologic Technologies, Inc

[2] = target: T2, mouse coagulation factor X (mouse); assay: as above; conditions: both partners purified
T2 construct: also called mouse FX; FX; source: bought: Haematologic Technologies, Inc

B1: Ad5.0 vector (adenovirus serotype 5 vector with a wild-type Ad5 capsid) (complex)
chain: ATPSMMPQWSYMHISGQDASEYLSPGLVQFARATETYFSLNNKFRNPTVAPTHDVTTDRSQRLTLRFIPVDREDTAYSYKARFTLAVGDNRVLDMASTYFDIRGVLDRGPTFKPYSGTAYNALAPKGAPNPCEWDEAATALEINLEEEDDDNEDEVDEQAEQQKTHVFGQAPYSGINITKEGIQIGVEGQTPKYADKTFQPEPQIGESQWYETEINHAAGRVLKKTTPMKPCYGSYAKPTNENGGQGILVKQQNGKLESQVEMQFFSTTEATAGNGDNLTPKVVLYSEDVDIETPDTHISYMPTIKEGNSRELMGQQSMPNRPNYIAFRDNFIGLMYYNSTGNMGVLAGQASQLNAVVDLQDRNTELSYQLLLDSIGDRTRYFSMWNQAVDSYDPDVRIIENHGTEDELPNYCFPLGGVINTETLTKVKPKTGQENGWEKDATEFSDKNEIRVGNNFAMEINLNANLWRNFLYSNIALYLPDKLKYSPSNVKISDNPNTYDYMNKRVVAPGLVDCYINLGARWSLDYMDNVNPFNHHRNAGLRYRSMLLGNGRYVPFHIQVPQKFFAIKNLLLLPGSYTYEWNFRKDVNMVLQSSLGNDLRVDGASIKFDSICLYATFFPMAHNTASTLEAMLRNDTNDQSFNDYLSAANMLYPIPANATNVPISIPSRNWAAFRGWAFTRLKTKETPSLGSGYDPYYTYSGSIPYLDGTFYLNHTFKKVAITFDSSVSWPGNDRLLTPNEFEIKRSVDGEGYNVAQCNMTKDWFLVQMLANYNIGYQGFYIPESYKDRMYSFFRNFQPMSRQVVDDTKYKDYQQVGILHQHNNSGFVGYLAPTMREGQAYPANFPYPLIGKTAVDSITQKKFLCDRTLWRIPFSSNFMSMGALTDLGQNLLYANSAHALDMTFEVDPMDEPTLLYVLFEVFDVVRVHRPHRGVIETVYLRTPFSAGNATT
Kd [1]: 820 pM
Kd [2]: 420 pM
